Data published in patent publication US20200325232A1 (INNATE PHARMA, published 2020).

T1: CD19 (UniProt P15391 20-556, limits assumed)
T1 sequence (looked up): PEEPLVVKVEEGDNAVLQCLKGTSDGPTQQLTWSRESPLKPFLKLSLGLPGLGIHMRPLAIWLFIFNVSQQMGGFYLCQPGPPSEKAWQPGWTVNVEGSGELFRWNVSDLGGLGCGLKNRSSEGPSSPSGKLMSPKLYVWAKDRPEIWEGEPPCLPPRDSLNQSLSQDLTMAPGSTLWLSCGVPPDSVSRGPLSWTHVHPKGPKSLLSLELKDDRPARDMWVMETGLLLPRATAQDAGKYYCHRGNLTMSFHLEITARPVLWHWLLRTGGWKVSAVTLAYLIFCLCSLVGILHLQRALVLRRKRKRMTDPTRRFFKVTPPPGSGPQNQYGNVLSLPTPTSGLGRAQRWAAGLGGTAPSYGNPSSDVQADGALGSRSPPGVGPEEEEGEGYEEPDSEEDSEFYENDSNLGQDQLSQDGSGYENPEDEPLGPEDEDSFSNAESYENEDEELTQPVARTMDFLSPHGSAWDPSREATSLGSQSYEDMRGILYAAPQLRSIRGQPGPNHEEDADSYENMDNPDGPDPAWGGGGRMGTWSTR

B1: NKp46-3 (antibody, V domains shown)
VH: EVQLQQSGPELVKPGASVKISCKTSGYTFTEYTMHWVKQSHGKSLEWIGGISPNIGGTSYNQKFKGKATLTVDKSSSTAYMELRSLTSEDSAVYYCARRGGSFDYWGQGTTLTVSS
VL: DIVMTQSPATLSVTPGDRVSLSCRASQSISDYLHWYQQKSHESPRLLIKYASQSISGIPSRFSGSGSGSDFTLSINSVEPEDVGVYYCQNGHSFPLTFGAGTKLELK
notes: Mouse hybridoma antibody (Balb/c immunisation); also called anti-NKp46 (NKp46-3)
B2: CD19-F18-NKp46-1 (bispecific antibody)
chain 1: not shown
chain 2: not shown
chain 3: DIQMTQTTSSLSASLGDRVTISCRASQDISNYLNWYQQKPDGTVKLLIYYTSRLHSGVPSRFSGSGSGTDYSLTINNLEQEDIATYFCQQGNTRPWTFGGGTKLEIKASTKGPSVFPLAPSSKSTSGGTAALGCLVKDYFPEPVTVSWNSGALTSGVHTFPAVLQSSGLYSLSSVVTVPSSSLGTQTYICNVNHKPSNTKVDKRVEPKSCDKTH
B3: CD19-F20-NKp46-1 (bispecific antibody, human IgG1, kappa)
chain 1: not shown
chain 2: not shown
chain 3: B2 chain 3
B4: CD19-F19-NKp46-1 (bispecific antibody, human IgG1, kappa)
chain 1: not shown
chain 2: not shown
chain 3: B2 chain 3

What was measured:
human NKp46 = target: T2, human NKp46 (human, UniProt O76036 22-304); test: flow cytometry screen of Example 1 on a cell line expressing human NKp46
T2 construct: The screen used a cell line expressing 'the human NKp46 construct' at the cell surface; In the lysis assays NKp46 is on fresh human NK cells; also called huNKp46; NKp46 receptor
T2 sequence (O76036 22-304 Q82K limits assumed): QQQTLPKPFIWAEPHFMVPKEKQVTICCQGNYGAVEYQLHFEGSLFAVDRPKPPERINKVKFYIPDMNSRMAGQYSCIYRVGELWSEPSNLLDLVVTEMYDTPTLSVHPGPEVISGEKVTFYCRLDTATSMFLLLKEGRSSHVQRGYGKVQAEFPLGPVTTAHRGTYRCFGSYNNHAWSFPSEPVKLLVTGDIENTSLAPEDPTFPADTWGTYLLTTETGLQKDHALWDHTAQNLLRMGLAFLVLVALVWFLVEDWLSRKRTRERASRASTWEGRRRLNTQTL
Protocol: Primary screen: Supematant (SN) of growing clones were tested in a primary screen by flow cytometry using a cell line expressing the human NKp46 construct at the cell surface.

CD19 = target: T1, CD19; test: cell-based or functional assay

Binder | binding result (human NKp46) | EC50 of Daudi target cell lysis by NK cells (4-h 51Cr-release assay) (CD19)
B1 | binds | 
B2 |  | ~1 picomolar
B3 |  | ~1 picomolar
B4 |  | ~1 picomolar
